Results published in publication PMC13399020 (The FASEB Journal, 2026).
“And” between values parts separate entries of the source, which are not always exact repeats. Equal entries are not always repeated.

B3: phenylalanine hydroxylase, wild type (PAH-WT), full-length (enzyme, human, UniProt P00439 1-452, looked up)
chain: MSTAVLENPGLGRKLSDFGQETSYIEDNCNQNGAISLIFSLKEEVGALAKVLRLFEENDVNLTHIESRPSRLKKDEYEFFTHLDKRSLPALTNIIKILRHDIGATVHELSRDKKKDTVPWFPRTIQELDRFANQILSYGAELDADHPGFKDPVYRARRKQFADIAYNYRHGQPIPRVEYMEEEKKTWGTVFKTLKSLYKTHACYEYNHIFPLLEKYCGFHEDNIPQLEDVSQFLQTCTGFRLRPVAGLLSSRDFLGGLAFRVFHCTQYIRHGSKPMYTPEPDICHELLGHVPLFSDRSFAQFSQEIGLASLGAPDEYIEKLATIYWFTVEFGLCKQGDSIKAYGAGLLSSFGELQYCLSEKPKLLPLELEKTAIQNYTVTEFQPLYYVAESFNDAKEKVRNFAATIPRPFSVRYDPYTQRIEVLDNTQQLKILADSINSEIGILCSALQKIK
modifications: biotin (EZ-Link NHS-PEG4-Biotin) in the BLI experiments only
notes: phenylalanine hydroxylase (PAH), human, wild type; RD residues 1-110, CD 111-410, OD 411-452; Homotetramer; a minor octamer is also seen; also called full-length PAH

Tests used:
[1] = target: T1, DNAJC12, wild type, full-length (human, UniProt Q9UKB3 1-198); assay: SEC; with 1 mM L-Phe in sample and running buffer; 20 μM (subunit) PAH, PAH variant or MBP-PAH construct with 20-40 μM DNAJC12 or truncated DNAJC12; Superdex 200 Increase, 4°C, 20 mM Na-Hepes pH 7.0, 200 mM NaCl; complex fraction also checked by SDS-PAGE; settings: both partners purified
T1 construct: J-domain 14-76, linker-helix 87-100, CTD 176-198; also called DNAJC12-WT

[2] = target: the molecule itself; assay: SEC-MALS; MBP-PAH(RD) (4 mg/mL) alone or with DNAJC12 (4 mg/mL); Superdex 200 Increase, 20 mM Na-Hepes pH 7.0, 200 mM NaCl, 1 mM L-Phe
[3] = target: B3; assay: differential scanning fluorimetry; thermal unfolding of PAH (1.92 μM) with SYPRO Orange at increasing DNAJC12(176-198) peptide (0-16 μM); Tm1 followed; settings: both partners purified
[4] = target: T1, DNAJC12, wild type, full-length; assay: BLI; with 1 mM L-Phe; biotinylated PAH on streptavidin biosensors, DNAJC12 0.01-4 μM in solution; 25°C, PBS, 0.02% Tween-20, 0.5 mg/mL BSA; responses against concentration fitted to a one-site hyperbola; settings: both partners purified
[5] = target: the molecule itself; assay: SEC-MALS; PAH (2 mg/mL) and pre-purified PAH:DNAJC12 complex (2 mg/mL); Superdex 200 Increase, 20 mM Na-Hepes pH 7.0, 200 mM NaCl, without L-Phe supplementation
[6] = target: T1, DNAJC12, wild type, full-length; assay: BLI; without L-Phe; biotinylated PAH or TH on streptavidin biosensors, DNAJC12 0.01-4 μM in solution; 25°C, PBS, 0.02% Tween-20, 0.5 mg/mL BSA; responses against concentration fitted to a one-site hyperbola; settings: both partners purified

B1: MBP-PAH(33-112) (domain or fragment, human, UniProt P00439 33-112, looked up)
chain: GAISLIFSLKEEVGALAKVLRLFEENDVNLTHIESRPSRLKKDEYEFFTHLDKRSLPALTNIIKILRHDIGATVHELSRD
notes: Derived from pMAL-c5x/PAH (GenScript); Dimer in 1 mM L-Phe by SEC-MALS; theoretical monomer 52.9 kDa with MBP; also called MBP-PAH(RD); PAH(RD); source: E. coli K12 TB1, purified
With B1 the binding result [1] was “binds” and the “stoichiometry N” value [2] was 2 subunits in the oligomer.

B2: C-terminal peptide DNAJC12(176-198) (peptide, UniProt Q9UKB3 176-198, looked up)
peptide: HLRFRWSKDAPSELLRKFRNYEI
notes: only its last seven residues 192-KFRNYEI-198 are printed; also called C-terminal DNAJC12 peptide; CTD peptide; source: synthetic peptide, bought: GenScript
B2: binds [3].

With B3 the Kd [4] was 139 ± 19 nM, the “stoichiometry N” value [5] was 8 subunits in the oligomer and 4 subunits in the oligomer and the Kd [6] was 508 ± 59 nM.

B4: PAH-p.R261Q (enzyme, human)
chain: MSTAVLENPGLGRKLSDFGQETSYIEDNCNQNGAISLIFSLKEEVGALAKVLRLFEENDVNLTHIESRPSRLKKDEYEFFTHLDKRSLPALTNIIKILRHDIGATVHELSRDKKKDTVPWFPRTIQELDRFANQILSYGAELDADHPGFKDPVYRARRKQFADIAYNYRHGQPIPRVEYMEEEKKTWGTVFKTLKSLYKTHACYEYNHIFPLLEKYCGFHEDNIPQLEDVSQFLQTCTGFRLRPVAGLLSSRDFLGGLAFQVFHCTQYIRHGSKPMYTPEPDICHELLGHVPLFSDRSFAQFSQEIGLASLGAPDEYIEKLATIYWFTVEFGLCKQGDSIKAYGAGLLSSFGELQYCLSEKPKLLPLELEKTAIQNYTVTEFQPLYYVAESFNDAKEKVRNFAATIPRPFSVRYDPYTQRIEVLDNTQQLKILADSINSEIGILCSALQKIK
notes: phenylalanine hydroxylase (PAH), human, disease-associated variant p.R261Q; Derived from pMAL-c5x/PAH, which encodes human PAH-WT; called tetrameric in the legends; also called PKU-associated variant PAH-p.R261Q; source: E. coli K12 TB1, purified
B4: binds [1].

B5: tyrosine hydroxylase (TH) (enzyme)
chain: not shown
modifications: biotin (EZ-Link NHS-PEG4-Biotin) in the BLI experiment only
notes: tyrosine hydroxylase (TH); The methods tell neither plasmid nor purification of TH; also called unliganded TH
B5 was tested, and the Kd [6] was 138 ± 34 nM.
